Assay [1] deals with hTR-FcΔH (human transferrin receptor residues 1-97 fused to CH1 and hinge deleted human IgG1 heavy chain constant region), expressed on BHK cells (human). In words: cell ELISA on BHK-FcΔH cells, goat anti-human IgG Fc alkaline phosphatase conjugate 1:1000, PNPP substrate. (In general: ELISA stands for enzyme-linked immunosorbent assay.)
Assay [2] concerns the target T1, human FcγRI on interferon-γ-treated U937 cells (human, UniProt P12314 16-374).
T1 construct: whole, on cells; also called FcγR1; CD64
Briefly: inferred from Fc receptor-mediated superoxide production in U937 cells. Here is the method: To assess whether cell surface expression of reverse Fc was biologically active in terms of Fc receptor binding and complement fixation, Fc receptor-mediated superoxide production in the human monocyte-like cell line was examined. Superoxide was measured spectrophotometrically as a function of the cell's ability to reduce cytochrome c. Superoxide production was determined using the 96-well microtiter plate assay of Tao, et al., *J Leukoc Biol*, 58: 203–208 (1995). 25,000 cells/well of either BHK-WT (control), opsonized BHK cells, or BHK-reverse Fc clones were added to the assay plate containing either human monocyte-like U937 cells (ATCC, Rockville, Md.) pre treated with recombinant human interferon-γ (R&D Systems, Minneapolis, Minn.) or lavaged mouse peritoneal macrophages. The O_2-release was measured as the superoxide dismutase (SOD) inhibitable reduction of cytochrome c at 550 nm by using a ThermoMax Plate reader (Molecular Devices, Menlo Park, Calif.). The rate of O_2-production was monitored from time 0 to […] after stimulation.

T1 sequence (P12314 16-374): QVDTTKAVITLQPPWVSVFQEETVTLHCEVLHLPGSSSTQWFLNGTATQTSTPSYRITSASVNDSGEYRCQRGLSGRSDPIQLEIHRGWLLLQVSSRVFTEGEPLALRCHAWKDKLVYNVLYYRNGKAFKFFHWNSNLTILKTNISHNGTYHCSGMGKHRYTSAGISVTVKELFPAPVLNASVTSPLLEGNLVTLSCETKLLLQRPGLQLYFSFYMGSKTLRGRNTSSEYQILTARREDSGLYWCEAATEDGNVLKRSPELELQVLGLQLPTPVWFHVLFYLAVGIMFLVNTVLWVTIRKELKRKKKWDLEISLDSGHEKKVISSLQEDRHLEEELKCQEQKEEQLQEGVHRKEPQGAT

“Goat anti-human IgG Fc alkaline phosphatase conjugate (Sigma) (antibody)” gave a Cell Surface Fc (OD405) in assay [1] of 2.8 OD405.

B1: hTR-FcΔH (human transferrin receptor residues 1-97 fused to CH1 and hinge deleted human IgG1 heavy chain constant region), expressed on BHK cells (Fc fusion)
chain: MMDQARSAFSNLFGGEPLSYTRFSLARQVDGDNSHVEMKLAVDEEENADNNTKANVTKPKRCSGSICYGTIAVIVFFLIGFMIGYLGYCKGVEPKTEGSAPELLGGPSVFLFPPKPKDTLMISRTPEVTCVVVDVSHEDPEVKFNWYVDGVEVHNAKTKPREEQYNSTYRVVSVLTVLHQDWLNGKEYKCKVSNKALPAPIEKTISKAKGQPREPQVYTLPPSRDELTKNQVSLTCLVKGFYPSDIAVEWESNGQPENNYKTTPPVLDSDGSFFLYSKLTVDKSRWQQGNVFSCSVMHEALHNHYTQKSLSLSPGK
notes: also called BHK-FcΔH; BHK-FcΔH(3)
For the molecule B1, the binding result in assay [2] is “binds”.

These data come from US7189837 (NEUROTECH S A, dated 2007).
